For experiment [1], the target named is T1, human CD39 (full length, on cells) (human, UniProt P49961 1-510).
T1 construct: Recombinant on CHOK1-hCD39 cells or natural on SK-MEL-28, SK-MEL-5 and MOLP-8 cells; the cell line is named under assay; also called hCD39; ENTPD1
T1 sequence: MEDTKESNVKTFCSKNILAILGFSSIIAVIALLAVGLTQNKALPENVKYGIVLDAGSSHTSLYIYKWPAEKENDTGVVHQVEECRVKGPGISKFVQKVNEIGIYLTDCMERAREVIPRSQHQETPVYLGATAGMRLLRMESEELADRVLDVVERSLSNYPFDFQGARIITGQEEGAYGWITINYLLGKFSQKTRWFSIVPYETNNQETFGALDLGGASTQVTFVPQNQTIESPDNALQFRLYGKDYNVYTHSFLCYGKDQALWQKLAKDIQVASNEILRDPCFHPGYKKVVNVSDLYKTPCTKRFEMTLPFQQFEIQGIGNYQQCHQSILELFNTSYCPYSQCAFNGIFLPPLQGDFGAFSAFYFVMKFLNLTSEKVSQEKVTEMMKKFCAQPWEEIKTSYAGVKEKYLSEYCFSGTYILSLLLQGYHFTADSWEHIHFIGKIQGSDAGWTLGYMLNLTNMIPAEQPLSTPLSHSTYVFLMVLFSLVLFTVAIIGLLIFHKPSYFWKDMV
As to the kind of experiment: FACS, MOLP-8 cells. Here is the method: Similarly, human CD39 expressing cells SK-MEL-5, SK-MEL-28 or MOLP-8, were incubated with a gradient concentration of anti-CD39 antibodies for 30 minutes at 4° C. Cells were washed 3 times using FACS buffer and next incubated with fluorescence labelled secondary antibody (goat-anti-mouse IgG or goat anti-human IgG) for 30 minutes at 4° C. Cells were washed 3 times and then re-suspended in FACS buffer and analyzed by flow cytometry analysis on BD Celesta. Data plotted and analyzed using GraphPad Prism 8.02.
The binding affinity of the humanized antibodies for c23 was determined by FACS, using similar methods as described in Example 3.2. The c23 humanized antibody clones showing good binding affinity are listed in below Table 19 and Table 20, and also shown in FIGS. 7A, 7B and FIG. 8. EC₅₀ is the concentration of the indicated antibodies to reach 50% of the signal in this assay.
Background: Flow cytometry measures light scatter and fluorescence of single cells or particles in a stream.

For experiment [2], the target named is T1, human CD39 (full length, on cells). As to the kind of experiment: cell-based or functional assay.

Numbering of substitutions follows the chain as printed.

These results are taken from patent US20210388105A1 (ELPISCIENCE SUZHOU BIOPHARMA, published 2021).

B1: hu23.H2L2 (antibody, V domains shown)
VH: QVQLVQSGAEVKKPGASVKVSCKASGYNLKDTFLHWVRQAPGQGLEWMGRIDPANGNIKYDPKFQGRVTITADTSASTAYMELSSLRSEDTAVYYCANSPYYYGSGYRIFDVWGQGTTVTVSS
VL: EIVLTQSPATLSLSPGERATLSCSAFSSVNYMHWYQQKPGQAPRLLIYTTSNLASGIPARFSGSGSGTDYTLTISSLEPEDFAVYYCQQRSTYPFTFGQGTKLEIK
notes: humanized c23
In general, EC50 refers to the concentration at which the effect is half-maximal. Low readings indicate greater potency, high ones weaker potency. For the molecule B1, the EC50 in experiment [1] is 0.979 nM. In addition, in experiment [2], the “ATPase inhibition IC50 on SK-MEL-28 cells” value (from here on “ATPase inhibition IC50”) is 0.767 nM.

B2: hu23.H7L6 (antibody, V domains shown)
VH: B1 VH with Q1E, V20L, R38K, M48I, R67K, V68A, I70L, S77N, M81L, S84I
VL: B1 VL with E1Q, L13A, R44K, I57V, A59T, D69S, L77M
notes: humanized c23
As to B2, the response in experiment [1] was half-maximal at 0.271 nM (EC50). Further, the “ATPase inhibition IC50” value in experiment [2] was 0.121 nM.

B3: hu23.H6L6 (antibody, V domains shown)
VH: B1 VH with Q1E, V20L, M48I, V68A, S77N, S84I
VL: B1 VL with E1Q, L13A, R44K, I57V, A59T, D69S, L77M
notes: humanized c23
With B3, in experiment [1], it took 0.237 nM to reach a half-maximal effect (EC50).

B4: hu23.H7L5 (antibody, V domains shown)
VH: B1 VH with Q1E, V20L, R38K, M48I, R67K, V68A, I70L, S77N, M81L, S84I
VL: B1 VL with E1Q, A59T, D69S
notes: humanized c23
Regarding B4, the response in experiment [1] was half-maximal at 0.25 nM (EC50). The “ATPase inhibition IC50” value in experiment [2] stood at 0.144 nM.

B5: hu23.H7L7 (antibody, V domains shown)
VH: B1 VH with Q1E, V20L, R38K, M48I, R67K, V68A, I70L, S77N, M81L, S84I
VL: B1 VL with E1Q, L13A, A19V, L21I, S22T, R44K, I57V, A59T, D69S, L77M
notes: humanized c23
Take B5: a half-maximal effect in experiment [1] (EC50) was put at 0.25 nM.

B6: hu23.H6L7 (antibody, V domains shown)
VH: B1 VH with Q1E, V20L, M48I, V68A, S77N, S84I
VL: B1 VL with E1Q, L13A, A19V, L21I, S22T, R44K, I57V, A59T, D69S, L77M
notes: humanized c23
The molecule B6 gave an EC50 in experiment [1] of 0.122 nM.

B7: hu23.H3L2 (antibody, V domains shown)
VH: B1 VH with V20L, M48I, V68A
VL: B1 VL
notes: humanized c23
In experiment [1], B7 had an EC50 of 1.34 nM. This EC50 lies about 11-fold higher than the previous one.

B8: hu23.H4L1 (antibody, V domains shown)
VH: B1 VH with V20L, R38K, M48I, V68A, I70L, M81L
VL: B1 VL with Y70F
notes: humanized c23
With B8, in experiment [1], the binding result was “no binding”.

B9: hu23.H4L3 (antibody, V domains shown)
VH: B1 VH with V20L, R38K, M48I, V68A, I70L, M81L
VL: B1 VL with L13A, L77M
notes: humanized c23
The molecule B9 displayed a concentration giving a half-maximal response (EC50) in experiment [1] of 1.87 nM.

B10: hu23.H6L5 (antibody, V domains shown)
VH: B1 VH with Q1E, V20L, M48I, V68A, S77N, S84I
VL: B1 VL with E1Q, A59T, D69S
notes: humanized c23
In the case of B10, a half-maximal effect in experiment [1] (EC50) was put at 0.593 nM.

B11: hu23.H5L6 (antibody, V domains shown)
VH: B1 VH with S77N, S84I
VL: B1 VL with E1Q, L13A, R44K, I57V, A59T, D69S, L77M
notes: humanized c23
B11 displayed an EC50 in experiment [1] of 0.202 nM. In experiment [2], the “ATPase inhibition IC50” value is 0.13 nM.

B12: hu23.H1L1 (antibody, V domains shown)
VH: B1 VH with G44R, A72R, N98R
VL: B1 VL with Y70F
notes: humanized c23
With B12, the concentration for a half-maximal effect (EC50) in experiment [1] was roughly 77.1 nM.

B13: hu23.H7L1 (antibody, V domains shown)
VH: B1 VH with Q1E, V20L, R38K, M48I, R67K, V68A, I70L, S77N, M81L, S84I
VL: B1 VL with Y70F
notes: humanized c23
B13: in experiment [1], the EC50 came to 0.366 nM. Also, the “ATPase inhibition IC50” value in experiment [2] is 0.147 nM.

B14: hu23.H1L3 (antibody, V domains shown)
VH: B1 VH with G44R, A72R, N98R
VL: B1 VL with L13A, L77M
notes: humanized c23
The molecule B14 registered a concentration giving a half-maximal response (EC50) in experiment [1] of 2.77 nM.

B15: hu23.H4L4 (antibody, V domains shown)
VH: B1 VH with V20L, R38K, M48I, V68A, I70L, M81L
VL: B1 VL with L13A, A19V, L21I, L77M
notes: humanized c23
B15 yielded an EC50 in experiment [1] of 1.01 nM. Besides, the “ATPase inhibition IC50” value in experiment [2] was found to be 0.487 nM.

B16: hu23.H3L4 (antibody, V domains shown)
VH: B1 VH with V20L, M48I, V68A
VL: B1 VL with L13A, A19V, L21I, L77M
notes: humanized c23
In experiment [1], B16 registered a half-maximal effective concentration (EC50) of 1.61 nM.

B17: hu23.H3L3 (antibody, V domains shown)
VH: B1 VH with V20L, M48I, V68A
VL: B1 VL with L13A, L77M
notes: humanized c23
In turn, B17 yielded a concentration giving a half-maximal response (EC50) in experiment [1] of 3.29 nM.

B18: hu23.H4L2 (antibody, V domains shown)
VH: B1 VH with V20L, R38K, M48I, V68A, I70L, M81L
VL: B1 VL
notes: humanized c23
In turn, B18 displayed a 50% effective concentration (EC50) in experiment [1] of 1.15 nM.

B19: hu23.H5L7 (antibody, V domains shown)
VH: B1 VH with S77N, S84I
VL: B1 VL with E1Q, L13A, A19V, L21I, S22T, R44K, I57V, A59T, D69S, L77M
notes: humanized c23
B19 displayed a half-maximal effective concentration (EC50) in experiment [1] of 0.179 nM. This EC50 is about 6.4-fold lower than that of the molecule before.

B20: hu23.H1L4 (antibody, V domains shown)
VH: B1 VH with G44R, A72R, N98R
VL: B1 VL with L13A, A19V, L21I, L77M
notes: humanized c23
B20 returned a 50% effective concentration (EC50) in experiment [1] of 1.5 nM. For the same molecule, the “ATPase inhibition IC50” value in experiment [2] is 0.59 nM.

B21: hu23.H2L4 (antibody, V domains shown)
VH: B1 VH
VL: B1 VL with L13A, A19V, L21I, L77M
notes: humanized c23
In the case of B21, in experiment [1], the half-maximal effective concentration (EC50) is 1.46 nM.

B22: hu23.H1L2 (antibody, V domains shown)
VH: B1 VH with G44R, A72R, N98R
VL: B1 VL
notes: humanized c23
B22: in experiment [1], a half-maximal response (EC50) required 1.16 nM. Moreover, the “ATPase inhibition IC50” value in experiment [2] came out at 0.964 nM.

B23: hu23.H2L3 (antibody, V domains shown)
VH: B1 VH
VL: B1 VL with L13A, L77M
notes: humanized c23
In experiment [1], B23 had an EC50 of 2.03 nM.

B24: hu23.H5L1 (antibody, V domains shown)
VH: B1 VH with S77N, S84I
VL: B1 VL with Y70F
notes: humanized c23
As for B24, it took 0.262 nM to reach a half-maximal effect in experiment [1] (EC50).

B25: hu23.H6L1 (antibody, V domains shown)
VH: B1 VH with Q1E, V20L, M48I, V68A, S77N, S84I
VL: B1 VL with Y70F
notes: humanized c23
In experiment [1], B25 yielded a concentration giving a half-maximal response (EC50) of 0.246 nM.

B26: hu23.H2L1 (antibody, V domains shown)
VH: B1 VH
VL: B1 VL with Y70F
notes: humanized c23
In experiment [1], B26 yielded a concentration for a half-maximal effect (EC50) of 65.9 nM. This EC50 lies about 270-fold higher than the previous one.
